In the RNAGym collection of RNA variant scans (doi:10.7554/elife.80360):

B1: Hairpin Ribozyme (parent)
chain: GUCCUCUUUCACGUGCGCGUGAAAGAGAGAAGUGAACCAGAGAAACACACGUUGUGGUAUAUUACCUGGUA

Variants of: B1
Assay: self-cleavage, relative activity (ratio to wild type); higher = more cleavage; co-transcriptional

Variant | self-cleavage
GUCCUCUUUCACGUGCGCGUGAAAGAGAGAAGUGAACCAGAGAAACUCACGUUGAGGUAUAUUACCUGGUA [A47U U55A] | 0.161
GUCCUCUUUCACGUGCGCGUGAAAGAGAGAAGUGAACCAGAGAAACAAACGUUAUGGUAUAUUACCUGGUA [C48A G54A] | 0.169
GUCCUCUUUCACGUGCGCGUGAAAGAGAGAAGUGAACCAGAGAAACAAACGUUGUGGUAUAUUACCGGGUA [C48A U67G] | 0.122
GUCCUCUUUCACGUGCGCGUGAAAGAGAGAAGUGAACCAGAGAAACGCACGUUGUGGUAGAUUACCUGGUA [A47G U60G] | 0.0656
GUCCUCUUUCACGUGCGCGUGAAAGAGAGAAGUGAACCAGAGAAACAAACGUUGUGGUAUAUUACCUGCUA [C48A G69C] | 0.135
GUCCUCUUUCACGUGCGCGUGAAAGAGAGAAGUGAACCAGAGAAACCCACGUUGUGGUAUAUUACCUGGGA [A47C U70G] | 0.272
GUCCUCUUUCACGUGCGCGUGAAAGAGAGAAGUGAACCAGAGAAACUCACGUUGUGGUAUAUUACCUGUUA [A47U G69U] | 0.138
GUCCUCUUUCACGUGCGCGUGAAAGAGAGAAGUGAACCAGAGAAACUCACGUUGUGGUAUAUUACCUGAUA [A47U G69A] | 0.107
GUCCUCUUUCACGUGCGCGUGAAAGAGAGAAGUGAACCAGAGAAACGCUCGUUGUGGUAUAUUACCUGGUA [A47G A49U] | 0.0814
GUCCUCUUUCACGUGCGCGUGAAAGAGAGAAGUGAACCAGAGAAACGCACGUUGUGAUAUAUUACCUGGUA [A47G G57A] | 0.151
GUCCUCUUUCACGUGCGCGUGAAAGAGAGAAGUGAACCAGAGAAACAAACGGUGUGGUAUAUUACCUGGUA [C48A U52G] | 0.131
GUCCUCUUUCACGUGCGCGUGAAAGAGAGAAGUGAACCAGAGAAACAAACGCUGUGGUAUAUUACCUGGUA [C48A U52C] | 0.162
GUCCUCUUUCACGUGCGCGUGAAAGAGAGAAGUGAACCAGAGAAACUCAUGUUGUGGUAUAUUACCUGGUA [A47U C50U] | 0.171
GUCCUCUUUCACGUGCGCGUGAAAGAGAGAAGUGAACCAGAGAAACGCACGUUGUGGCAUAUUACCUGGUA [A47G U58C] | 0.17
GUCCUCUUUCACGUGCGCGUGAAAGAGAGAAGUGAACCAGAGAAACAAACGUUGUGGUAUAUUACCUGGCA [C48A U70C] | 0.27
GUCCUCUUUCACGUGCGCGUGAAAGAGAGAAGUGAACCAGAGAAACGCACGUUGUGGUAUAUUACCUGCUA [A47G G69C] | 0.112
GUCCUCUUUCACGUGCGCGUGAAAGAGAGAAGUGAACCAGAGAAACGCACGUUGUGGUAUAUUACCUGUUA [A47G G69U] | 0.118
GUCCUCUUUCACGUGCGCGUGAAAGAGAGAAGUGAACCAGAGAAACGCACGUUGUGGUAUAUGACCUGGUA [A47G U63G] | 0.0332
GUCCUCUUUCACGUGCGCGUGAAAGAGAGAAGUGAACCAGAGAAACGCACGUUGUGGUAUAUAACCUGGUA [A47G U63A] | 0.211
GUCCUCUUUCACGUGCGCGUGAAAGAGAGAAGUGAACCAGAGAAACGCACGUUGAGGUAUAUUACCUGGUA [A47G U55A] | 0.184
GUCCUCUUUCACGUGCGCGUGAAAGAGAGAAGUGAACCAGAGAAACGCACGUUGGGGUAUAUUACCUGGUA [A47G U55G] | 0.139
GUCCUCUUUCACGUGCGCGUGAAAGAGAGAAGUGAACCAGAGAAACUCACGUUAUGGUAUAUUACCUGGUA [A47U G54A] | 0.159
GUCCUCUUUCACGUGCGCGUGAAAGAGAGAAGUGAACCAGAGAAACUCACGUUUUGGUAUAUUACCUGGUA [A47U G54U] | 0.145
GUCCUCUUUCACGUGCGCGUGAAAGAGAGAAGUGAACCAGAGAAACUCACGUUCUGGUAUAUUACCUGGUA [A47U G54C] | 0.144
GUCCUCUUUCACGUGCGCGUGAAAGAGAGAAGUGAACCAGAGAAACAAACGUUGUGGUAAAUUACCUGGUA [C48A U60A] | 0.134
GUCCUCUUUCACGUGCGCGUGAAAGAGAGAAGUGAACCAGAGAAACGCACGUUGUGGUGUAUUACCUGGUA [A47G A59G] | 0.196

Variant | self-cleavage
GUCCUCUUUCACGUGCGCGUGAAAGAGAGAAGUGAACCAGAGAAACUCACGUUGUGGUAUAUUACAUGGUA [A47U C66A] | 0.157
GUCCUCUUUCACGUGCGCGUGAAAGAGAGAAGUGAACCAGAGAAACUCACGUUGUGGUAUAUUACUUGGUA [A47U C66U] | 0.228
GUCCUCUUUCACGUGCGCGUGAAAGAGAGAAGUGAACCAGAGAAACGCACGUUGUGGUAUAUUACGUGGUA [A47G C66G] | 0.128
GUCCUCUUUCACGUGCGCGUGAAAGAGAGAAGUGAACCAGAGAAACGAACGUUGUGGUAUAUUACCUGGUA [A47G C48A] | 0.122
GUCCUCUUUCACGUGCGCGUGAAAGAGAGAAGUGAACCAGAGAAACAAACGUUGUGGAAUAUUACCUGGUA [C48A U58A] | 0.0644
GUCCUCUUUCACGUGCGCGUGAAAGAGAGAAGUGAACCAGAGAAACAAACGUUGUGGGAUAUUACCUGGUA [C48A U58G] | 0.165
GUCCUCUUUCACGUGCGCGUGAAAGAGAGAAGUGAACCAGAGAAACAAGCGUUGUGGUAUAUUACCUGGUA [C48A A49G] | 0.215
GUCCUCUUUCACGUGCGCGUGAAAGAGAGAAGUGAACCAGAGAAACAAUCGUUGUGGUAUAUUACCUGGUA [C48A A49U] | 0.172
GUCCUCUUUCACGUGCGCGUGAAAGAGAGAAGUGAACCAGAGAAACAACCGUUGUGGUAUAUUACCUGGUA [C48A A49C] | 0.155
GUCCUCUUUCACGUGCGCGUGAAAGAGAGAAGUGAACCAGAGAAACAAACGUUGUGGUAUUUUACCUGGUA [C48A A61U] | 0.163
GUCCUCUUUCACGUGCGCGUGAAAGAGAGAAGUGAACCAGAGAAACUCACGUUGUGGUAUAAUACCUGGUA [A47U U62A] | 0.114
GUCCUCUUUCACGUGCGCGUGAAAGAGAGAAGUGAACCAGAGAAACUCACGUUGUGUUAUAUUACCUGGUA [A47U G57U] | 0.0955
GUCCUCUUUCACGUGCGCGUGAAAGAGAGAAGUGAACCAGAGAAACGCACGUUGUGGUAUAUUAGCUGGUA [A47G C65G] | 0.112
GUCCUCUUUCACGUGCGCGUGAAAGAGAGAAGUGAACCAGAGAAACUCACUUUGUGGUAUAUUACCUGGUA [A47U G51U] | 0.166
GUCCUCUUUCACGUGCGCGUGAAAGAGAGAAGUGAACCAGAGAAACUCACCUUGUGGUAUAUUACCUGGUA [A47U G51C] | 0.31
GUCCUCUUUCACGUGCGCGUGAAAGAGAGAAGUGAACCAGAGAAACAAACGUUGUGGUAUAUUGCCUGGUA [C48A A64G] | 0.127
GUCCUCUUUCACGUGCGCGUGAAAGAGAGAAGUGAACCAGAGAAACUCACGUUGUUGUAUAUUACCUGGUA [A47U G56U] | 0.148
GUCCUCUUUCACGUGCGCGUGAAAGAGAGAAGUGAACCAGAGAAACAAACGUUGUGAUAUAUUACCUGGUA [C48A G57A] | 0.121
GUCCUCUUUCACGUGCGCGUGAAAGAGAGAAGUGAACCAGAGAAACUGACGUUGUGGUAUAUUACCUGGUA [A47U C48G] | 0.137
GUCCUCUUUCACGUGCGCGUGAAAGAGAGAAGUGAACCAGAGAAACGCAAGUUGUGGUAUAUUACCUGGUA [A47G C50A] | 0.172
GUCCUCUUUCACGUGCGCGUGAAAGAGAGAAGUGAACCAGAGAAACGCAGGUUGUGGUAUAUUACCUGGUA [A47G C50G] | 0.105
GUCCUCUUUCACGUGCGCGUGAAAGAGAGAAGUGAACCAGAGAAACUCACGCUGUGGUAUAUUACCUGGUA [A47U U52C] | 0.0664
GUCCUCUUUCACGUGCGCGUGAAAGAGAGAAGUGAACCAGAGAAACAAACGUUGUGGUAUAUAACCUGGUA [C48A U63A] | 0.174
GUCCUCUUUCACGUGCGCGUGAAAGAGAGAAGUGAACCAGAGAAACAAACGUUGUGGUAUAUGACCUGGUA [C48A U63G] | 0.229
GUCCUCUUUCACGUGCGCGUGAAAGAGAGAAGUGAACCAGAGAAACGCACGUUGUGGUAUGUUACCUGGUA [A47G A61G] | 0.219
GUCCUCUUUCACGUGCGCGUGAAAGAGAGAAGUGAACCAGAGAAACUCACGUUGUGGUAUAUUAACUGGUA [A47U C65A] | 0.0949

Variant | self-cleavage
GUCCUCUUUCACGUGCGCGUGAAAGAGAGAAGUGAACCAGAGAAACUCACGUUGUGGUAUAUUAGCUGGUA [A47U C65G] | 0.139
GUCCUCUUUCACGUGCGCGUGAAAGAGAGAAGUGAACCAGAGAAACGCACUUUGUGGUAUAUUACCUGGUA [A47G G51U] | 0.15
GUCCUCUUUCACGUGCGCGUGAAAGAGAGAAGUGAACCAGAGAAACGCACCUUGUGGUAUAUUACCUGGUA [A47G G51C] | 0.221
GUCCUCUUUCACGUGCGCGUGAAAGAGAGAAGUGAACCAGAGAAACUCACGUUGUGGUACAUUACCUGGUA [A47U U60C] | 0.0859
GUCCUCUUUCACGUGCGCGUGAAAGAGAGAAGUGAACCAGAGAAACUCACGUUGUGGUAGAUUACCUGGUA [A47U U60G] | 0.0964
GUCCUCUUUCACGUGCGCGUGAAAGAGAGAAGUGAACCAGAGAAACUCACGUUGUGGUAAAUUACCUGGUA [A47U U60A] | 0.0931
GUCCUCUUUCACGUGCGCGUGAAAGAGAGAAGUGAACCAGAGAAACGCACGCUGUGGUAUAUUACCUGGUA [A47G U52C] | 0.124
GUCCUCUUUCACGUGCGCGUGAAAGAGAGAAGUGAACCAGAGAAACUCACGUUGUGGUAUAUUACCUGGUU [A47U A71U] | 0.234
GUCCUCUUUCACGUGCGCGUGAAAGAGAGAAGUGAACCAGAGAAACUCACGUUGUGGUAUAUUACCUGGUG [A47U A71G] | 0.191
GUCCUCUUUCACGUGCGCGUGAAAGAGAGAAGUGAACCAGAGAAACAAACGUUGUGGUAUAGUACCUGGUA [C48A U62G] | 0.0864
GUCCUCUUUCACGUGCGCGUGAAAGAGAGAAGUGAACCAGAGAAACCCACGUUGUGGUAUAUUACCAGGUA [A47C U67A] | 0.128
GUCCUCUUUCACGUGCGCGUGAAAGAGAGAAGUGAACCAGAGAAACUCACGUUGUGGUAUAUCACCUGGUA [A47U U63C] | 0.175
GUCCUCUUUCACGUGCGCGUGAAAGAGAGAAGUGAACCAGAGAAACGCACGUUGUGGUAUAAUACCUGGUA [A47G U62A] | 0.0725
GUCCUCUUUCACGUGCGCGUGAAAGAGAGAAGUGAACCAGAGAAACGCACGUUGUGGUAUAUUCCCUGGUA [A47G A64C] | 0.0744
GUCCUCUUUCACGUGCGCGUGAAAGAGAGAAGUGAACCAGAGAAACGCACGUUGUGGUAUAUUGCCUGGUA [A47G A64G] | 0.0949
GUCCUCUUUCACGUGCGCGUGAAAGAGAGAAGUGAACCAGAGAAACAAACGUUGUGGUAUAUUACCUCGUA [C48A G68C] | 0.246
GUCCUCUUUCACGUGCGCGUGAAAGAGAGAAGUGAACCAGAGAAACAAACGUUGUGGUAUAUUACCUAGUA [C48A G68A] | 0.165
GUCCUCUUUCACGUGCGCGUGAAAGAGAGAAGUGAACCAGAGAAACAAACGUUGUCGUAUAUUACCUGGUA [C48A G56C] | 0.131
GUCCUCUUUCACGUGCGCGUGAAAGAGAGAAGUGAACCAGAGAAACUCACGUUGUGGUAUAUUACCUUGUA [A47U G68U] | 0.224
GUCCUCUUUCACGUGCGCGUGAAAGAGAGAAGUGAACCAGAGAAACUCACGUUGUGGUGUAUUACCUGGUA [A47U A59G] | 0.151
GUCCUCUUUCACGUGCGCGUGAAAGAGAGAAGUGAACCAGAGAAACUCACGUUGUGGUAUAUUUCCUGGUA [A47U A64U] | 0.123
GUCCUCUUUCACGUGCGCGUGAAAGAGAGAAGUGAACCAGAGAAACUCACGUUGUGGUAUAUUGCCUGGUA [A47U A64G] | 0.0969
GUCCUCUUUCACGUGCGCGUGAAAGAGAGAAGUGAACCAGAGAAACAAACGUUGUGGUAUAUUAGCUGGUA [C48A C65G] | 0.132
GUCCUCUUUCACGUGCGCGUGAAAGAGAGAAGUGAACCAGAGAAACAAACGUUGUGGUAUAUUAUCUGGUA [C48A C65U] | 0.189
